Experimental data as given in article PMC7714071, “Interaction of amyloid beta with humanin and acetylcholinesterase is modulated by ATP” (FEBS Open Bio, 2020).

Assays:
[1] = target: Aβ from A549 cell‐conditioned media (human (endogenous in A549)); experiment: ELISA; antibody (6E10 or 82E1 against Aβ, or anti‐HN, or anti‐AChE) bound to the wells; 300 μL conditioned medium (0.5 μg·μL^−1) added without or with ATP (100 μM, 1 mM); the partner held with the captured protein detected by its primary antibody
[2] = target: Aβ from A549 cell‐conditioned media (human (endogenous in A549)); experiment: ELISA; single‐site ELISA for oligomerized Aβ (capture 4G8, detection 4G8‐biotin) against two‐site ELISA for total Aβ (capture 6E10, detection 4G8‐biotin); conditioned media, control or immunodepleted of HN or AChE, without or with ATP
[3] = target: Aβ from H1299 cell‐conditioned media (human (endogenous in H1299)); experiment: as above

AChE from A549 cell‐conditioned media, sequence (P22303 32-614): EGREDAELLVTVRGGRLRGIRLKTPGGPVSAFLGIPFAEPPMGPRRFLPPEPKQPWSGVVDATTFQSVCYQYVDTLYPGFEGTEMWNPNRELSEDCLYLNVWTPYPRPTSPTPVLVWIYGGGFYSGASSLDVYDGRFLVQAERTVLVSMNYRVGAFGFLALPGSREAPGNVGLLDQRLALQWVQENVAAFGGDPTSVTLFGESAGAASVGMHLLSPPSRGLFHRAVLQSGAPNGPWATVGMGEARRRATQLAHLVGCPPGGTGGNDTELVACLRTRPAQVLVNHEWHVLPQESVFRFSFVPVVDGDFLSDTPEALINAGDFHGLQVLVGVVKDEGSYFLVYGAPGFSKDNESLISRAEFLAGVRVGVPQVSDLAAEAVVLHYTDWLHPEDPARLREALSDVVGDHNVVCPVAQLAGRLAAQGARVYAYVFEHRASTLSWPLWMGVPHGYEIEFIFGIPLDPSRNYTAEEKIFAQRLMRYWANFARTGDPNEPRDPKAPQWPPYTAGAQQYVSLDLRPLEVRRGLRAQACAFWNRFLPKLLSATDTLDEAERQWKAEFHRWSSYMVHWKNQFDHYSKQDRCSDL

For “AChE from A549 cell‐conditioned media (from UniProt P22303 32-614) (enzyme)”, which fold decrease in AChE in a complex with Aβ with 100 μM ATP, relative to samples without added ATP [1] is on record?
The fold decrease in AChE in a complex with Aβ with 100 μM ATP, relative to samples without added ATP was 2.3 fold.

Which results are given for “Aβ from A549 cell‐conditioned media (peptide)”?
percent oligomer of the total Aβ that remained after immunodepletion of AChE [2]: 47%; percent oligomer of the total Aβ that remained after immunodepletion of HN [2]: 86%; percent oligomer of total Aβ [2]: 63%

Which results are given for “Aβ from H1299 cell‐conditioned media (peptide)”?
percent oligomer of the total Aβ that remained after immunodepletion of HN [3]: 69%; percent oligomer of total Aβ [3]: 48%

For “HN from A549 cell‐conditioned media (peptide)”, which fold increase in HN bound to Aβ with 100 μM ATP, relative to samples without added ATP [1] is on record?
The fold increase in HN bound to Aβ with 100 μM ATP, relative to samples without added ATP was 1.85 fold.

What about the fold increase in HN bound to Aβ with 1 mM ATP, relative to samples without added ATP [1] of the same substance?
The fold increase in HN bound to Aβ with 1 mM ATP, relative to samples without added ATP was 2.5 fold.
